Data from PMC4269863.
pKd: −log10 of the molar value.

Legend:
[1] = target: envelope glycoproteins gp120/gp41 of HIV-1 NL4.3 virus with gp41 N625Q (HIV-1 NL4.3)
[2] = target: envelope glycoproteins gp120/gp41 of HIV-1 NL4.3 virus with gp41 N611Q (HIV-1 NL4.3)
[3] = target: envelope glycoproteins gp120/gp41 of HIV-1 NL4.3 virus with gp41 N674Q (HIV-1 NL4.3)
[4] = target: envelope glycoproteins gp120/gp41 of wild-type HIV-1 NL4.3 virus (HIV-1 NL4.3)
[5] = target: envelope glycoproteins gp120/gp41 of HIV-1 NL4.3 virus with gp41 N637Q (HIV-1 NL4.3)
[6] = target: envelope glycoproteins gp120/gp41 of HIV-1 NL4.3 virus with gp41 N637Q/N674Q (HIV-1 NL4.3)
[7] = target: envelope glycoproteins gp120/gp41 of HIV-1 NL4.3 virus with gp41 N625Q/N674Q (HIV-1 NL4.3)
[8] = target: envelope glycoproteins gp120/gp41 of HIV-1 NL4.3 virus with gp41 N611Q/N637Q (HIV-1 NL4.3)
[9] = target: envelope glycoproteins gp120/gp41 of HIV-1 NL4.3 virus with gp41 N625Q/N637Q/N674Q (HIV-1 NL4.3)
[10] = target: envelope glycoproteins gp120/gp41 of HIV-1 NL4.3 virus with gp41 N625Q/N637Q (HIV-1 NL4.3)
[11] = target: envelope glycoproteins gp120/gp41 of HIV-1 NL4.3 virus with gp41 N674D (HIV-1 NL4.3)
[12] = target: envelope glycoproteins gp120/gp41 of HIV-1 NL4.3 virus with gp41 N611Q/N637Q/N674Q (HIV-1 NL4.3)
[13] = target: HIV-1 transmembrane envelope glycoprotein gp41 (immobilised for SPR) (HIV-1 (strain not stated)) (UniProt P04578); assay: SPR; gp120 and gp41 covalently immobilised by amine coupling on a CM4 chip (about 115 and 45 RU), HSA as control surface; CBAs injected as two-fold dilutions; Biacore T200, 25°C, HBS-P (10 mM HEPES, 150 mM NaCl, 0.05% surfactant P20, pH 7.4) with 10 mM CaCl2; 1:1 Langmuir model
[14] = target: HIV-1 surface envelope glycoprotein gp120 (immobilised for SPR) (HIV-1 (strain not stated)) (UniProt P04578); assay: as above
soluble CD4 = soluble CD4 (UniProt P01730); assay: ELISA; 0.5 μg soluble CD4 coated on maxisorp strips; about 48 ng p24 of virus lysed with Triton-X100 added 1 h at 37°C; bound gp120 detected with sheep antibody D7324; normalised to WT∆Env virus, relative to WT (100%)

Sequence of actinohivin (Q9KWN0 47-160): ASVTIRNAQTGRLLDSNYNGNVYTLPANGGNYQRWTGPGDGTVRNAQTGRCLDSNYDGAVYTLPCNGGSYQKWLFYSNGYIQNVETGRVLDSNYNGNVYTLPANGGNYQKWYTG

| Substance | EC50 of inhibition of cell-free virus infection of C8166 cells (eGFP, flow cytometry, 72 h) [1] | EC50 of inhibition of cell-free virus infection of C8166 cells (eGFP, flow cytometry, 72 h) [2] | EC50 of inhibition of cell-free virus infection of C8166 cells (eGFP, flow cytometry, 72 h) [3] | EC50 of inhibition of cell-free virus infection of C8166 cells (eGFP, flow cytometry, 72 h) [4] | EC50 of inhibition of cell-free virus infection of C8166 cells (eGFP, flow cytometry, 72 h) [5] | EC50 of inhibition of cell-free virus infection of C8166 cells (eGFP, flow cytometry, 72 h) [6] | EC50 of inhibition of cell-free virus infection of C8166 cells (eGFP, flow cytometry, 72 h) [7] | EC50 of inhibition of cell-free virus infection of C8166 cells (eGFP, flow cytometry, 72 h) [8] | EC50 of inhibition of cell-free virus infection of C8166 cells (eGFP, flow cytometry, 72 h) [9] | EC50 of inhibition of cell-free virus infection of C8166 cells (eGFP, flow cytometry, 72 h) [10] | EC50 of inhibition of cell-free virus infection of C8166 cells (eGFP, flow cytometry, 72 h) [11] | EC50 of inhibition of cell-free virus infection of C8166 cells (eGFP, flow cytometry, 72 h) [12] | pKd [13] | pKd [14] | binding efficiency, percent of WT (soluble CD4) |
| --- | --- | --- | --- | --- | --- | --- | --- | --- | --- | --- | --- | --- | --- | --- | --- |
| Hippeastrum hybrid agglutinin (natural protein) | 1.4 nM | 1.6 nM | 1.3 nM | 0.9 nM | 3.7 nM | 1.6 nM | 1.3 nM | 2.7 nM | 2.1 nM | 1.4 nM | 1.9 nM | 2.8 nM | 9.40 | 9.30 | – |
| Urtica dioica agglutinin (natural protein) | 27 nM | 32 nM | 32 nM | 25 nM | 57 nM | 28 nM | 30 nM | 63 nM | 35 nM | 51 nM | 34 nM | 52 nM | 8.43 | 8.05 | – |
| actinohivin (from UniProt Q9KWN0 47-160) (natural protein) | 8.1 nM | 5.4 nM | 8.3 nM | 5.2 nM | 15 nM | 4.3 nM | 3.2 nM | 3 nM | 3.2 nM | 3.8 nM | 2.1 nM | 3.6 nM | 8.70 | 7.85 | – |
| envelope glycoproteins gp120/gp41 of HIV-1 NL4.3 virus with gp41 N625Q (complex) | – | – | – | – | – | – | – | – | – | – | – | – | – | – | 130 % of WT |
